Results as given in the supplement of paper PMC7125110.
± gives the standard error. For some assays here: Variants at the floor of the assay were thinned out.

B1: glmS ribozyme (parent)
chain: AUAAAAGCGCCAGAACUACAGAAAUGUAGUUGACGAGGAGGAGGUUUAUCGAAUUUUCGGCGGAUGCCUCCAAA

Key:
Conditions in all cases: with glucosamine-6-phosphate
glucosamine-6-phosphate [1] = variants of: B1; experiment: kcat; higher = faster cleavage; RNA array
Procedure, shortened: (§1)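 Barcoded glmS ribozyme variants on sequenced MiSeq chips were transcribed in situ by E. coli RNA polymerase and tracked through a hybridised Cy3 probe at 37 °C. Glucosamine-6-phosphate (40 μM to 10 mM) in HEPES/KCl/Mg(OAc)2 buffer was flowed in, and tiles were imaged over ~14 h. Signals were normalised to baseline and to non-cleaving reference variants; per-tile medians were fit to one- or two-exponential decays to give kobs. kcat and KM came from weighted Michaelis–Menten fits across concentrations.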

glucosamine-6-phosphate [2] = variants of: B1; experiment: KM; higher = weaker cofactor use; RNA array
Procedure, shortened: as §1

glucosamine-6-phosphate [3] = variants of: B1; experiment: self-cleavage kobs at 40 uM GlcN6P; higher = faster cleavage; RNA array
Procedure, shortened: as §1

glucosamine-6-phosphate [4] = variants of: B1; experiment: self-cleavage kobs at 160 uM GlcN6P; higher = faster cleavage; RNA array
Procedure, shortened: as §1

glucosamine-6-phosphate [5] = variants of: B1; experiment: self-cleavage kobs at 640 uM GlcN6P; higher = faster cleavage; RNA array
Procedure, shortened: as §1

glucosamine-6-phosphate [6] = variants of: B1; experiment: self-cleavage kobs at 2500 uM GlcN6P; higher = faster cleavage; RNA array
Procedure, shortened: as §1

glucosamine-6-phosphate [7] = variants of: B1; experiment: self-cleavage kobs at 10000 uM GlcN6P; higher = faster cleavage; RNA array
Procedure, shortened: as §1

Variant | kcat (glucosamine-6-phosphate [1]) | KM (glucosamine-6-phosphate [2]) | self-cleavage kobs at 40 uM GlcN6P (glucosamine-6-phosphate [3]) | self-cleavage kobs at 160 uM GlcN6P (glucosamine-6-phosphate [4]) | self-cleavage kobs at 640 uM GlcN6P (glucosamine-6-phosphate [5]) | self-cleavage kobs at 2500 uM GlcN6P (glucosamine-6-phosphate [6]) | self-cleavage kobs at 10000 uM GlcN6P (glucosamine-6-phosphate [7])
U31G U46C | 0.000896 ± 0.00013 s⁻¹ | 1720 ± 420 µM | 3.68e-05 ± 1.6e-05 s⁻¹ | 7.33e-05 ± 1.5e-05 s⁻¹ | 0.00021 ± 6.8e-05 s⁻¹ | 0.000592 ± 0.00011 s⁻¹ | 0.000731 ± 0.00014 s⁻¹
G38A C50G | 3.77e-05 ± 1.1e-05 s⁻¹ | – | – | 6.25e-05 ± 1.5e-05 s⁻¹ | 3.79e-05 ± 1.3e-05 s⁻¹ | 3.46e-05 ± 1.4e-05 s⁻¹ | –
C16U U69G | 6.57e-05 ± 1.1e-05 s⁻¹ | – | – | 5.84e-05 ± 1.4e-05 s⁻¹ | 9.02e-05 ± 2.1e-05 s⁻¹ | 8.96e-05 ± 1.1e-05 s⁻¹ | 5.34e-05 ± 6.6e-06 s⁻¹
C16A A39U | 0.00123 ± 0.00017 s⁻¹ | 2410 ± 520 µM | – | 6.24e-05 ± 9.4e-06 s⁻¹ | 0.000287 ± 2.3e-05 s⁻¹ | 0.000654 ± 5.7e-05 s⁻¹ | 0.000937 ± 9e-05 s⁻¹
G29A A52U | 0.0001272 ± 9.8e-07 s⁻¹ | 2770 ± 58 µM | < 1e-05 s⁻¹ | – | 2.42e-05 ± 1.1e-05 s⁻¹ | 5.99e-05 ± 1.4e-05 s⁻¹ | 9.97e-05 ± 1.3e-05 s⁻¹
A33C U54C | 0.00039 ± 4.2e-05 s⁻¹ | 1950 ± 360 µM | – | – | 0.0001 ± 1.7e-05 s⁻¹ | 0.000217 ± 3.9e-05 s⁻¹ | 0.000325 ± 9.2e-05 s⁻¹
U47A U54A U65C | 0.00046 ± 0.0001 s⁻¹ | 1750 ± 700 µM | – | – | 0.000114 ± 2.7e-05 s⁻¹ | 0.000387 ± 0.0001 s⁻¹ | 0.000358 ± 8.9e-05 s⁻¹
C34G C50G G62A | 2.47e-05 ± 3.6e-06 s⁻¹ | – | – | – | – | – | –
A12C G32A | 0.00031 ± 2.5e-05 s⁻¹ | 3110 ± 470 µM | – | – | 5.72e-05 ± 1e-05 s⁻¹ | 0.000129 ± 1.8e-05 s⁻¹ | 0.000244 ± 3.1e-05 s⁻¹
C58G G66C | 2.6e-05 ± 1.4e-06 s⁻¹ | 2200 ± 540 µM | – | – | < 1e-05 s⁻¹ | – | –
U45G C71G | 0.000564 ± 5.3e-05 s⁻¹ | 2510 ± 370 µM | – | 3.29e-05 ± 1.3e-05 s⁻¹ | 0.000112 ± 1.2e-05 s⁻¹ | 0.000322 ± 5.2e-05 s⁻¹ | 0.000432 ± 6.3e-05 s⁻¹
G32U G51A | < 1e-05 s⁻¹ | – | < 1e-05 s⁻¹ | – | – | – | –
C11U G59A | 0.0105 ± 0.0043 s⁻¹ | – | 0.000335 ± 3.7e-05 s⁻¹ | 0.0014 ± 0.00027 s⁻¹ | 0.00203 ± 0.0004 s⁻¹ | 0.00582 ± 0.0018 s⁻¹ | 0.0116 ± 0.0016 s⁻¹
G29U U45G | 0.000648 ± 0.00013 s⁻¹ | 1660 ± 680 µM | – | 3.73e-05 ± 1.2e-05 s⁻¹ | 0.000217 ± 2.8e-05 s⁻¹ | 0.00064 ± 0.00013 s⁻¹ | 0.000522 ± 5.5e-05 s⁻¹
U57A U65G | 4.49e-05 ± 7.1e-06 s⁻¹ | – | < 1e-05 s⁻¹ | – | – | 4.6e-05 ± 1.3e-05 s⁻¹ | 3.88e-05 ± 1.2e-05 s⁻¹
C68G C71U | < 1e-05 s⁻¹ | – | – | – | – | – | –
C16U U46A U54G C70A | 0.000156 ± 2.4e-05 s⁻¹ | 743 ± 300 µM | – | – | 6.86e-05 ± 2.2e-05 s⁻¹ | 0.000143 ± 3.9e-05 s⁻¹ | 0.000124 ± 5e-05 s⁻¹
G29U U69A | 5.85e-05 ± 1.1e-05 s⁻¹ | – | – | – | 3.35e-05 ± 1e-05 s⁻¹ | 6.77e-05 ± 9.3e-06 s⁻¹ | 4.84e-05 ± 1.1e-05 s⁻¹

Variant | kcat (glucosamine-6-phosphate [1]) | KM (glucosamine-6-phosphate [2]) | self-cleavage kobs at 40 uM GlcN6P (glucosamine-6-phosphate [3]) | self-cleavage kobs at 160 uM GlcN6P (glucosamine-6-phosphate [4]) | self-cleavage kobs at 640 uM GlcN6P (glucosamine-6-phosphate [5]) | self-cleavage kobs at 2500 uM GlcN6P (glucosamine-6-phosphate [6]) | self-cleavage kobs at 10000 uM GlcN6P (glucosamine-6-phosphate [7])
U30G U46A | 0.000655 ± 7e-05 s⁻¹ | 3710 ± 930 µM | – | – | – | 0.000252 ± 5.8e-05 s⁻¹ | 0.000483 ± 6.6e-05 s⁻¹
C58A C61A | 1.11e-05 ± 1.1e-06 s⁻¹ | – | – | – | – | – | < 1e-05 s⁻¹
G13U G32U | 0.00043 ± 2.8e-05 s⁻¹ | 3420 ± 370 µM | – | 2.69e-05 ± 1.1e-05 s⁻¹ | 6.64e-05 ± 8.3e-06 s⁻¹ | 0.000182 ± 3.1e-05 s⁻¹ | 0.000321 ± 3.4e-05 s⁻¹
G37C G60C | < 1e-05 s⁻¹ | – | – | – | – | – | < 1e-05 s⁻¹
U47A U57A | 0.000331 ± 5.6e-05 s⁻¹ | 6360 ± 1900 µM | – | – | 3.47e-05 ± 9.4e-06 s⁻¹ | 8.34e-05 ± 2e-05 s⁻¹ | 0.000205 ± 2.7e-05 s⁻¹
G13A U69A | 4.03e-05 ± 1.6e-05 s⁻¹ | – | – | – | – | 6.18e-05 ± 1.2e-05 s⁻¹ | –
G29C C50U | < 1e-05 s⁻¹ | – | – | < 1e-05 s⁻¹ | – | – | –
A15C G41U | 0.000171 ± 7.6e-06 s⁻¹ | 879 ± 120 µM | – | – | 7.33e-05 ± 2.3e-05 s⁻¹ | 0.000137 ± 3.4e-05 s⁻¹ | 0.000154 ± 2.6e-05 s⁻¹
G51A | 1.01e-05 ± 2.8e-07 s⁻¹ | 965 ± 160 µM | – | – | – | – | –
A15C A52G | 0.000755 ± 0.00022 s⁻¹ | 7750 ± 3200 µM | – | – | 6.9e-05 ± 1.1e-05 s⁻¹ | 0.000164 ± 2e-05 s⁻¹ | 0.000449 ± 5.5e-05 s⁻¹
G29A A48C | 3.13e-05 ± 8.9e-06 s⁻¹ | – | – | – | – | 3.4e-05 ± 1.6e-05 s⁻¹ | –
C10G C11A | < 1e-05 s⁻¹ | – | < 1e-05 s⁻¹ | – | < 1e-05 s⁻¹ | – | –
G13U A14G C61U C70G | 1.9e-05 ± 5.3e-06 s⁻¹ | – | – | – | – | – | –
C10U U56C | 2.01e-05 ± 2.1e-06 s⁻¹ | – | < 1e-05 s⁻¹ | – | – | – | –
C11G A15U U54A C70A | 3.62e-05 ± 1.5e-05 s⁻¹ | – | – | – | 6.28e-05 ± 2.7e-05 s⁻¹ | – | –
A15C C70A C71A | 3.7e-05 ± 3.6e-06 s⁻¹ | 98.6 ± 41 µM | – | – | – | – | –
C11U U30G | 0.00224 ± 0.00076 s⁻¹ | – | 0.0001 ± 1.4e-05 s⁻¹ | 0.00018 ± 2.9e-05 s⁻¹ | 0.000444 ± 7.4e-05 s⁻¹ | 0.00185 ± 0.00033 s⁻¹ | 0.00194 ± 0.00021 s⁻¹
U30G U55G | 0.00756 ± 0.0019 s⁻¹ | 1440 ± 590 µM | 0.00025 ± 5.1e-05 s⁻¹ | – | 0.00222 ± 0.00047 s⁻¹ | 0.00378 ± 0.00086 s⁻¹ | 0.00866 ± 0.0016 s⁻¹
